B1: Serine/threonine-protein kinase D1 (Mus musculus), Q62101 (parent)
chain: MSVPPLLRPPSPLLPAAAAVAAAAAALVPGSGPAPFPAPGAAPAGGISFHLQIGLSREPVLLLQDSSGDYSLAHVREMACSIVDQKFPECGFYGLYDKILLFRHDPASDNILQLVKIASDIQEGDLIEVVLSASATFEDFQIRPHALFVHSYRAPAFCDHCGEMLWGLVRQGLKCEGCGLNYHKRCAFKIPNNCSGVRRRRLSNVSLTGLGTVRTASAEFSTSVPDEPLLSPVSPGFEQKSPSESFIGREKRSNSQSYIGRPIQLDKLLMSKVKVPHTFVIHSYTRPTVCQFCKKLLKGLFRQGLQCKDCRFNCHKRCAPKVPNNCLGEVTINGELLSPGAESDVVMEEGSDDNDSERNSGLMDDMDEAMVQDTEMALAEGQSGGAEMQDPDADQEDSNRTISPSTSNNIPLMRVVQSVKHTKRRSSTVMKEGWMVHYTSKDTLRKRHYWRLDSKCITLFQNDTGSRYYKEIPLSEILCLEPAKPSALTPVGATPHCFEITTANVVYYVGENVVNPSSSPPNNSVLPSGIGPDVARMWEVAIQHALMPVIPKGSSVGSGSNSHKDISVSISVSNCQIQENVDISTVYQIFPDEVLGSGQFGIVYGGKHRKTGRDVAIKIIDKLRFPTKQESQLRNEVAILQNLHHPGVVNLECMFETPERVFVVMEKLHGDMLEMILSSEKGRLPEHITKFLITQILVALRHLHFKNIVHCDLKPENVLLASADPFPQVKLCDFGFARIIGEKSFRRSVVGTPAYLAPEVLRNKGYNRSLDMWSVGVIIYVSLSGTFPFNEDEDIHDQIQNAAFMYPPNPWKEISHEAIDLINNLLQVKMRKRYSVDKTLSHPWLQDYQTWLDLRELECRIGERYITHESDDSRWEQYAGEQGLQYPAHLISLSASHSDSPEAEEREMKALSERVSIL

Variants of: B1
Conditions: with itb3_human ITGB3, P05106
Sequence of itb3_human ITGB3, P05106 (P05106 whole entry): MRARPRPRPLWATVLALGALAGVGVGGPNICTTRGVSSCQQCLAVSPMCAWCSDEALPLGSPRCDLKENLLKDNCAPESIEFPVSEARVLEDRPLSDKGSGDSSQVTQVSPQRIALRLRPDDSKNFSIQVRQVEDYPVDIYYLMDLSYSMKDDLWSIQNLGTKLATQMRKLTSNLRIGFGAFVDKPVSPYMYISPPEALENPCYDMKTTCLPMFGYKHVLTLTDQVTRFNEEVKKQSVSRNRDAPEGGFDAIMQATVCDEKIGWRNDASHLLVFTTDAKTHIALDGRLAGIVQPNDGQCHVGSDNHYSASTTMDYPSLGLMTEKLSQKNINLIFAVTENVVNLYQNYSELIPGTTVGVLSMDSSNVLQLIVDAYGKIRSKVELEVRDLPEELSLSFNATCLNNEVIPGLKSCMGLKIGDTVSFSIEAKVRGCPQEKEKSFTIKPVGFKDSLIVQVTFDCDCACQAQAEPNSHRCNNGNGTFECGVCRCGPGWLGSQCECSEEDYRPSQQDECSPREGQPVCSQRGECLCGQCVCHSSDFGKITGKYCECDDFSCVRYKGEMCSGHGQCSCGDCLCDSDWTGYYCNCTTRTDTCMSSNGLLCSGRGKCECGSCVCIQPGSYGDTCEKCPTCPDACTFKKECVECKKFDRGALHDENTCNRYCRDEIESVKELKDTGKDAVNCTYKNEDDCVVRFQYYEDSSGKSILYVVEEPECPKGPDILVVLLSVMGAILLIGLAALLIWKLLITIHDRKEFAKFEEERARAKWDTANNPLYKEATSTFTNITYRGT

Variant | effect of a mutation on the interaction
S916A | decreasing interaction

Variants of: B1
Conditions: with itb3_human ITGB3, P05106
Remark: another data set of the same source

Variant | effect of a mutation on the interaction
S916A | disrupting interaction
